Experimental findings from US20140242111A1 are described below.

The assay addresses insulin receptor on differentiated 3T3-L1 adipocytes (mouse (murine 3T3-L1 cell line)) (UniProt P15208). The assay is described as follows: cell-based or functional assay.

Sequence of insulin receptor on differentiated 3T3-L1 adipocytes (mouse (murine 3T3-L1 cell line)) (P15208 28-1372): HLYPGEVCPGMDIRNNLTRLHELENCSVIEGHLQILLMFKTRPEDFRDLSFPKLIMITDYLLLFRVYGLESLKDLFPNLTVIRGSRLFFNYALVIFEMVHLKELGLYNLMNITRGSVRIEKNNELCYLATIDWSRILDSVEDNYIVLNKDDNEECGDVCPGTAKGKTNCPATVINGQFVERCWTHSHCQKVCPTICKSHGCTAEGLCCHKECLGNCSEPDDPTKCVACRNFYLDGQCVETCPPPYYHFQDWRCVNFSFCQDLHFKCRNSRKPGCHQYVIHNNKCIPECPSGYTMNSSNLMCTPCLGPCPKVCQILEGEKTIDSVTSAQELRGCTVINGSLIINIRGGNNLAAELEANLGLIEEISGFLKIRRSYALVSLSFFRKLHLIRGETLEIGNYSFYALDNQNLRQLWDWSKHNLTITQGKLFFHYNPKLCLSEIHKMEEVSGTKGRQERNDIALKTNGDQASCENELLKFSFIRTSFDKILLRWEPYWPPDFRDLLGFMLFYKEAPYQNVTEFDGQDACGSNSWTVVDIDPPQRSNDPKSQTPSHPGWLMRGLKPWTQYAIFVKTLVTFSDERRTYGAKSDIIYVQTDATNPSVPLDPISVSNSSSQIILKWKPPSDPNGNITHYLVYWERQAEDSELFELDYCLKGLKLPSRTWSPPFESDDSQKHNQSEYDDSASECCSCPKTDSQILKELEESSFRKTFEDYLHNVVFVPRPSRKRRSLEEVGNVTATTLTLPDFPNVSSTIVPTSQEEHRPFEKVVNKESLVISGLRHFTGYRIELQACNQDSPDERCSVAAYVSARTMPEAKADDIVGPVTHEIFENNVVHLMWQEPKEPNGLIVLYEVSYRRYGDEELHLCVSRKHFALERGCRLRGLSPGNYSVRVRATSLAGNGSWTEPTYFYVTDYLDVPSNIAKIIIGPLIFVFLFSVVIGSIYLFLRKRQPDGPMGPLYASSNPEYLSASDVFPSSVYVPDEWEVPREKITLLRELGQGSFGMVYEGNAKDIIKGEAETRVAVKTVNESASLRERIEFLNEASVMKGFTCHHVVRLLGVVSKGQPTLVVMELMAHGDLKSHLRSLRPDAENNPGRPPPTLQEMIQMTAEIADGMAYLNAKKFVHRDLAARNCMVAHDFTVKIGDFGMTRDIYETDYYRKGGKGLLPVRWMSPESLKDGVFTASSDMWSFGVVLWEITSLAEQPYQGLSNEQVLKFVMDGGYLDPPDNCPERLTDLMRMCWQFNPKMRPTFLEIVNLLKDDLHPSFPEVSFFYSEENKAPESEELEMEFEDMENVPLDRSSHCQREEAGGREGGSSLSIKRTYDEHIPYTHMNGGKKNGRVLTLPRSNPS

B1: SCI-57 without RGS-His tag (single-chain insulin analog secreted by L. lactis NZ9000(pNZPnisA:uspSCI-57)) (ligand)
chain: FVNQHLCGSDLVEALYLVCGERGFFYTDPTGGGPRRGIVEQCCHSICSLYQLENYCN
As to B1, the Insulin activity (no tag), p-Akt on 3T3-L1 adipocytes; culture: M17 only (nM commercial insulin (equivalent)) was under 1; the Insulin activity (no tag), p-Akt on 3T3-L1 adipocytes; culture: M17 with 50 mM sodium phosphates (nM commercial insulin (equivalent)) is under 1; the Insulin activity (no tag), p-Akt on 3T3-L1 adipocytes; culture: M17 with NaOH addition at 1.5 hr (nM commercial insulin (equivalent)) was over 1.

B2: RGS-His-tagged SCI-57 (single-chain insulin analog secreted by L. lactis NZ9000(pNZPnisA:uspSCI-57his), usp45 signal peptide cleaved) (ligand)
chain: FVNQHLCGSDLVEALYLVCGERGFFYTDPTGGGPRRGIVEQCCHSICSLYQLENYCNRGSHHHHHH
For B2, the Insulin activity (with RGS-His tag), p-Akt on 3T3-L1 adipocytes; culture: M17 with NaOH addition at 0.5 hr (nM commercial insulin (equivalent)) is 1; the Insulin activity (with RGS-His tag), p-Akt on 3T3-L1 adipocytes; culture: M17 with NaOH addition at 1.5 hr (nM commercial insulin (equivalent)) came to 1; the Insulin activity (with RGS-His tag), p-Akt on 3T3-L1 adipocytes; culture: M17 with NaOH addition at 2.5 hr (nM commercial insulin (equivalent)) is under 1; the Insulin activity (with RGS-His tag), p-Akt on 3T3-L1 adipocytes; culture: M17 with NaOH addition every hour (nM commercial insulin (equivalent)) was 1. In addition, the p-Akt(Ser473) Western blot on differentiated 3T3-L1 adipocytes, quantified from three independent experiments; supernatant of induced culture treated with NaOH (scale: nM commercial insulin) came out at 1.
